Source: PMC9320808

What was measured:
[1] = molecular target: PD-L1-6His-tag (Programmed cell Death Ligand 1) of the Cisbio Human PD1/PD-L1 biochemical binding assay (human) (UniProt Q9NZQ7); test: AlphaScreen or HTRF
[2] = molecular target: human PD-L1 expressed on CHO-K1 cells (CHO-K1 hPD-L1) (human) (UniProt Q9NZQ7); test: radioligand binding
human PD-L1 expressed on CHO-K1 cells (CHO-K1 hPD-L1) (human), sequence (Q9NZQ7 19-290): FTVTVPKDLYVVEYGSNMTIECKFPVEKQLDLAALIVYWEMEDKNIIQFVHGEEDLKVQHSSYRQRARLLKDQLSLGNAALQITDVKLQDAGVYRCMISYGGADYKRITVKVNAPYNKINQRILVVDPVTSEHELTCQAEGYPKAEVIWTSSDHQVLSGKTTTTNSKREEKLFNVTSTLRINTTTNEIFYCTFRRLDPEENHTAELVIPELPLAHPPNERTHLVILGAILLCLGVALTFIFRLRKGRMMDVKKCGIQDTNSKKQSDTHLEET

PD-L1-6His-tag (Programmed cell Death Ligand 1) of the Cisbio Human PD1/PD-L1 biochemical binding assay (human), sequence (Q9NZQ7 19-238): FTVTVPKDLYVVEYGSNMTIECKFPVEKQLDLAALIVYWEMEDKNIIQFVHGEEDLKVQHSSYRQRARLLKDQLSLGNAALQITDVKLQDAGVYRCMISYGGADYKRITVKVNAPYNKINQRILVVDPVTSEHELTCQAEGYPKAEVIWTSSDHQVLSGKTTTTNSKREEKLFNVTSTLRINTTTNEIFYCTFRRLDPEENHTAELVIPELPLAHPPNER

cell internalization %AD/10^6 cells (90 min) (%AD/10^6 cells) [2]	membrane bound %AD/10^6 cells (90 min) (%AD/10^6 cells) [2]	Substance	IC50 [1]
–	–	natGa-WL12 (WL12 with DOTAGA on Orn13, loaded with natGa) (peptide)	12.4 nM
–	–	natGa-NJMP1 (peptide)	25900 nM
19.2	18.2	[68Ga]Ga-WL12 (WL12 with DOTAGA on Orn13, loaded with 68Ga) (peptide)	–
–	–	BMS78, 14-mer macrocyclic peptide	133 nM
–	–	NJMP1 (BMS78 C-terminally conjugated to Lys(DOTA)NH2) (peptide)	242 nM
1.68	0.36	[68Ga]Ga-NJMP1 (peptide)	–
